From US20180236032A1 come the findings set out here.

Common to all, as to test: cell-based or functional assay
Assay [1] deals with FGFR3c expressed on BaF3 cells (BaF3/FGFR3c).
For assay [2] the target is unchanged. This is another data set of the same source.
Assay [3] shares this target. This is another data set of the same source.

Read-outs that look alike come from different tables or passages of the source.

As to “recombinant truncated FGF-18 (trFGF-18) (from UniProt O76093 28-196) (ligand)”, the BaF3/FGFR3 cell proliferation, O.D. (WST-1), Sprifermin 100 ng/mL (CTR+) in assay [1] was found to be 0.15 O.D; in assay [2], 0.5 O.D; in assay [3], 0.194 O.D. Also, in assay [2], the BaF3/FGFR3 cell proliferation, Optical Density (WST-1), Sprifermin 100 ng/mL (CTR+) was 0.5 O.D.
